Molecular target: Human Factor B
Sequence (chain, as listed by the source): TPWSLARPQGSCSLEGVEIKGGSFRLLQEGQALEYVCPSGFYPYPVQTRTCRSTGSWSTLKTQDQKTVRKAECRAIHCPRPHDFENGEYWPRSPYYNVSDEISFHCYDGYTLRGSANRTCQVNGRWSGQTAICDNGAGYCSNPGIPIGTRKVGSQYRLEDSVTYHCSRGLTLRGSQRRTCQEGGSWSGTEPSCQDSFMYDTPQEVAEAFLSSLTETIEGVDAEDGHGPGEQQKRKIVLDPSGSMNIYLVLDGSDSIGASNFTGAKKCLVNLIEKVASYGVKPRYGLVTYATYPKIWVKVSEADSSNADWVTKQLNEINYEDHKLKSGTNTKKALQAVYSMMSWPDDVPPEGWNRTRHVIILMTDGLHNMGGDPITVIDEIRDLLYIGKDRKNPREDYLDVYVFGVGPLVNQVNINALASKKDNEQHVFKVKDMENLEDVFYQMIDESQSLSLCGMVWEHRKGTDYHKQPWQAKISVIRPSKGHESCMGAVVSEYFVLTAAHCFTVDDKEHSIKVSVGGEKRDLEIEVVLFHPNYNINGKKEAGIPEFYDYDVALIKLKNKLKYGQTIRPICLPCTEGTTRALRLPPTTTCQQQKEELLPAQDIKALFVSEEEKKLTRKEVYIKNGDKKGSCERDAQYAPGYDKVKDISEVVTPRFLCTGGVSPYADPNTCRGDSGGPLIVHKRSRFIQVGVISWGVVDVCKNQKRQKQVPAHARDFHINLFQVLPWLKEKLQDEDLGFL

Protein	Factor B cleavage, Coomassie gel	other results
MTSP-1 F97E/K224N/F99L/D217I/C122S/C[17]S/C[19]S (protein) VVGGTDADEGEWPWQVSLHALGQGHICGASLISPNWLVSAAHCYIDDRGFRYSDPTQWTAFLGLHDQSQRSAPGVQERRLKRIISHPFFNDETLDYDIALLELEKPAEYSSMVRPISLPDASHVFPAGKAIWVTGWGHTQYGGTGALILQKGEIRVINQTTCENLLPQQITPRMMCVGFLSGGVDSCQGDSGGPLSSVEADGRIFQAGVVSWGIGCAQRNNPGVYTRLPLFRDWIKENTGV		Factor B add-back hemolysis: is able to inhibit hemolysis
chymase C22S/K40L/F41K/L99N/F173Y/D175N/S218L/A226R (protein) IIGGTESKPHSRPYMAYLEIVTSNGPSLKCGGFLIRRNFVLTAAHCAGRSITVTLGAHNITEEEDTWQKLEVIKQFRHPKYNTSTNHHDIMLLKLKEKASLTLAVGTLPFPSQFNFVPPGRMCRVAGWGRTGVLKPGSDTLQEVKLRLMDPQACSHYRNFDHNLQLCVGNPRKTKSAFKGDSGGPLLCAGVAQGIVSYGRLDAKPPRVFTRISHYRPWINQILQAN	each lot showed the ability of the engineered proteases to cleave Factor B	
chymase C22S/P38Q/K40M/F41R/V138I/F173Y/D175R/A190S/V213A/S218V/A226R (protein) IIGGTESKPHSRPYMAYLEIVTSNGQSMRCGGFLIRRNFVLTAAHCAGRSITVTLGAHNITEEEDTWQKLEVIKQFRHPKYNTSTLHHDIMLLKLKEKASLTLAVGTLPFPSQFNFVPPGRMCRIAGWGRTGVLKPGSDTLQEVKLRLMDPQACSHYRRFDHNLQLCVGNPRKTKSSFKGDSGGPLLCAGVAQGIASYGRVDAKPPRVFTRISHYRPWINQILQAN		Factor B cleavage: show high Factor B cleavage activity
chymase C22S/P38Q/K40L/F41R/V138I/F173Y/D175N/A190S/V213A/S218V/A226R (protein) IIGGTESKPHSRPYMAYLEIVTSNGQSLRCGGFLIRRNFVLTAAHCAGRSITVTLGAHNITEEEDTWQKLEVIKQFRHPKYNTSTLHHDIMLLKLKEKASLTLAVGTLPFPSQFNFVPPGRMCRIAGWGRTGVLKPGSDTLQEVKLRLMDPQACSHYRNFDHNLQLCVGNPRKTKSSFKGDSGGPLLCAGVAQGIASYGRVDAKPPRVFTRISHYRPWINQILQAN		Factor B cleavage: show high Factor B cleavage activity
chymase C22S/P38Q/K40M/F41R/D175N/V213Q/S218V/A226R/F228A (protein) IIGGTESKPHSRPYMAYLEIVTSNGQSMRCGGFLIRRNFVLTAAHCAGRSITVTLGAHNITEEEDTWQKLEVIKQFRHPKYNTSTLHHDIMLLKLKEKASLTLAVGTLPFPSQFNFVPPGRMCRVAGWGRTGVLKPGSDTLQEVKLRLMDPQACSHFRNFDHNLQLCVGNPRKTKSAFKGDSGGPLLCAGVAQGIQSYGRVDAKPPRVATRISHYRPWINQILQAN	each lot showed the ability of the engineered proteases to cleave Factor B	
chymase C22S/P38Q/K40L/F41R/L99H/V138I/F173Y/D175S/A190S/V213A/S218I/A226R (protein) IIGGTESKPHSRPYMAYLEIVTSNGQSLRCGGFLIRRNFVLTAAHCAGRSITVTLGAHNITEEEDTWQKLEVIKQFRHPKYNTSTHHHDIMLLKLKEKASLTLAVGTLPFPSQFNFVPPGRMCRIAGWGRTGVLKPGSDTLQEVKLRLMDPQACSHYRSFDHNLQLCVGNPRKTKSSFKGDSGGPLLCAGVAQGIASYGRIDAKPPRVFTRISHYRPWINQILQAN	each lot showed the ability of the engineered proteases to cleave Factor B	
chymase C22S/P38Q/K40M/F41R/L99M/F173Y/D175N/V213Q/S218V/A226R/F228A (protein) IIGGTESKPHSRPYMAYLEIVTSNGQSMRCGGFLIRRNFVLTAAHCAGRSITVTLGAHNITEEEDTWQKLEVIKQFRHPKYNTSTMHHDIMLLKLKEKASLTLAVGTLPFPSQFNFVPPGRMCRVAGWGRTGVLKPGSDTLQEVKLRLMDPQACSHYRNFDHNLQLCVGNPRKTKSAFKGDSGGPLLCAGVAQGIQSYGRVDAKPPRVATRISHYRPWINQILQAN	each lot showed the ability of the engineered proteases to cleave Factor B	
